According to patent publication US6790633:

Assays:
[1] = molecular target: T1, rat brain farnesyl:protein transferase (rat, UniProt Q04631 2-377; Q02293 1-437); assay: cell-based or functional assay
[2] = molecular target: T1, rat brain farnesyl:protein transferase; assay: cell-based or functional assay; remark: listed apart in the source

| Concentration For 50% Inhibition [1] [µM] | concentration giving 50% inhibition [2] [µM] | Binder | further results |
| --- | --- | --- | --- |
| 0.2 | – | CSIM | – |
| 0.35 | – | CIIS | – |
| 0.15 | – | CVIM | – |
| 30 | – | CTVA | – |
| 1 | – | CVIS | – |
| 0.15 | – | CVLM | – |
| 11 | 12 | CVIL | – |
| 0.15 | – | CIIM | – |
| – | 0.025 | CVFM | fold increase in affinity for the enzyme against CVIM [2]: 6 fold |
| – | 20 | CVPM | – |
| – | 0.5 | CVIF | – |
| – | 0.7 | CKIM | – |
| – | 8 | CPIM | – |
| 17 | – | CLIL | – |
| 3 | – | CVLS | – |
| > 100 | – | CIKS | – |
| 0.35 | – | CIIC | – |
| 0.15 | – | CVVM | – |
| – | – | CVAM | fold decrease in affinity for the enzyme against CVIM, as estimated by the concentration required for 50% inhibition [2]: > 30 fold |
| 100 | – | CAIL | – |
| 0.15 | – | CAIM | – |
| 5 | – | CVIA | fold decrease in affinity for the enzyme against CVIM, as estimated by the concentration required for 50% inhibition [2]: > 30 fold |
| 22 | – | CLLL | – |
| – | 1.5 | CEIM | – |
| – | 4 | CGIM | – |
| 0.35 | – | CCVQ | – |
